No end group written: not given here.
Molecular target: GST-hCASK PDZ fusion protein (residues 489-572) (human)
Assay: pull-down

APTKEFYA-OH [COOH-terminal syndecan-2 peptide (APTKEFYA-COOH)] was tested, and the IC50 was 40 to 70 µM.

Source: paper PMC2133028
